Measurements: US20180021429A1, “ANTICANCER AGENTS OR ANTIMETASTATIC AGENTS USING FSTL1 AND COMBINATION DRUG THEREOF” (PHARMA FOODS INTERNATIONAL CO., LTD., priority 2015, published 2018)
Entries after “also recorded” stand apart in the source; their conditions may differ.

Test system: induction of mesenchymal stem cells (MSCs) by FSTL1
Assay: Inhibitory activity against induction of MSC by FSTL1, CD45-negative cells (Examples 6, 8, 12)
Type: cell-based, mouse
Details: Example 12, FIG. 7/37; FSTL1 20 ng/mL; antibody 10 μg/mL; 8 days
Method: (§1) Mouse bone marrow cells prepared in the same way as in Example 4 were supplemented with 50 ng/mL (final concentration) of FSTL1 and 10 μg/mL of the anti-FSTL1 antibody (#5-2, #5-3, #5-8, #5-10, 45-43, #6-55, or #7-34) or a control antibody anti-DNP antibody and cultured under stimulation. 11 days thereafter, the number of cells was counted while the cells were stained with a PE-Cy5-labeled anti-CD45 antibody (BD Pharmingen/Becton, Dickinson and Company, Cat. No. 555484), and the content of CD45-negative cells reported to generally contain MSCs at a high rate was analyzed by flow cytometry using FACScan to calculate the percentage and number of MSCs per culture (FIG. 5A).
(§2) Mouse bone marrow cells prepared in the same way as in Example 4 were supplemented with 20 ng/mL (final concentration) of FSTL1 and 10 μg/mL of the anti-FSTL1 antibody (#5-2, #5-3, #5-8, #5-10, #5-43, #6-55, #8-1, #8-4, #8-7, and #8-8) or a control antibody anti-DNP antibody and cultured under stimulation. 8 days thereafter, the number of cells was counted while the cells were stained with a PE-Cy5-labeled anti-CD45 antibody, and the content of CD45-negative cells was analyzed by flow cytometry using FACScan to calculate the percentage and number of MSCs per culture (FIG. 6A).
as §2, with “(#5-2,” for “(#5-2, #5-3,”, “#5-8,” for “#5-8, #5-10, #5-43,”, “#6-55, #7-34,” for “#6-55,”, “#8-7, or” for “#8-7, and”, “(FIG. 7).” for “(FIG. 6A).”
as §1, with “35A).” for “5A).”
as §2, with “36A).” for “6A).”
as §2, with “(#5-2,” for “(#5-2, #5-3,”, “#5-8,” for “#5-8, #5-10, #5-43,”, “#6-55, #7-34,” for “#6-55,”, “#8-7, or” for “#8-7, and”, “(FIG. 37).” for “(FIG. 6A).”

B1: #8-7: chicken-mouse chimeric anti-FSTL1 antibody clone; variable regions SEQ ID NO: 799 (light), 801 (heavy) (antibody, V domains shown)
VH: AVTLDESGGGLQTPGGGLSLVCKGSGFTFSSFNMFWVRQAPGKGLEWVAGIGKDGVPKYGAAVDGRATISKDNGQSTLRLQLNNLRAEDTGTYFCAKAAGGCSYDWCGIYAGDIDTWGHGTEVIVSS
VL: ASTQPSSVSANPGEAVKITCSGGSGSYYGWYQQKSPGSAPVTVIYNNNQRPSDIPSRFSGSKSGSTATLTITGVQAEDEAVYFCGGYDSSTGHGGIFGAGTTLTVL
modifications: mouse constant regions
inhibitory activity against the expansion of CD45-negative cells by FSTL1: higher inhibitory activity was confirmed in the order of #7-34, #5-2, #6-55, and #8-7; also recorded: stronger inhibitory activity was confirmed in the order of clone #7-34, #5-2, 46-55, and #8-7
